In experiment [1] the target is Avaren‐Fc expressed in glycoengineered ΔXylT/ΔFucT N. benthamiana (AvFc^ΔXF) ( | human). The experiment can be described thus: SPR.
In experiment [2] the target is Avaren‐Fc expressed in wild‐type N. benthamiana (AvFc^WT) ( | human). The experiment in a line: SPR. (In SPR one partner is held on a chip, and binding of the other changes the refractive index at the surface.)

B1: mouse FcγRIV (receptor)
chain: GLQKAVVNLDPKWVRVLEEDSVTLRCQGTFSPEDNSIKWFHNESLIPHQDANYVIQSARVKDSGMYRCQTALSTISDPVQLEVHMGWLLLQTTKWLFQEGDPIHLRCHSWQNRPVRKVTYLQNGKGKKYFHENSELLIPKATHNDSGSYFCRGLIGHNNKSSASFRISLGDPGSPSMFPPWHQ
For B1, the results for the Kd in experiment [1] and in experiment [2] were 457 nM and 2530 nM, respectively.

B2: human FcγRI (receptor)
chain: QVDTTKAVITLQPPWVSVFQEETVTLHCEVLHLPGSSSTQWFLNGTATQTSTPSYRITSASVNDSGEYRCQRGLSGRSDPIQLEIHRGWLLLQVSSRVFTEGEPLALRCHAWKDKLVYNVLYYRNGKAFKFFHWNSNLTILKTNISHNGTYHCSGMGKHRYTSAGISVTVKELFPAPVLNASVTSPLLEGNLVTLSCETKLLLQRPGLQLYFSFYMGSKTLRGRNTSSEYQILTARREDSGLYWCEAATEDGNVLKRSPELELQVLGLQLPTPVWFH
As for B2, the Kd in experiment [1] was 4.04 nM; in experiment [2], 7.78 nM.

One may read the Kd as a measure of binding affinity in units of concentration. Lower therefore signals tighter binding.
